Literature values as cited in PMC8268101.

Biological target: C1q (Homo sapiens) (UniProt P02745)
Assay: SPR

Sequence of UniProt P02745 (P02745 23-245, chain 1 of 3): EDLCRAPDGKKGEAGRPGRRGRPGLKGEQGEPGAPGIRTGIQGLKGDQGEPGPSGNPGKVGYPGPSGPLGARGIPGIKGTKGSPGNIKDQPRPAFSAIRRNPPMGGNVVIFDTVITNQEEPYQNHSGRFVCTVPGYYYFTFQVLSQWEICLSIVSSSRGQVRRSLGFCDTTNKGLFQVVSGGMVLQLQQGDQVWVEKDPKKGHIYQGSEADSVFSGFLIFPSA
Sequence of UniProt P02745 (P02746 28-253, chain 2 of 3, further chain): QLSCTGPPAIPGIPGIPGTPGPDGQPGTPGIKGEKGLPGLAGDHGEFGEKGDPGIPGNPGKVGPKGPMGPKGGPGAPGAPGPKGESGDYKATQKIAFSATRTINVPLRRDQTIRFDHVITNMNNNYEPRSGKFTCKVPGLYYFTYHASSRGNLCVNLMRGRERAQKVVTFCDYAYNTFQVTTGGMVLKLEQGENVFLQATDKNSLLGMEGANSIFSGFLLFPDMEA
Sequence of UniProt P02745 (P02747 29-245, chain 3 of 3, further chain): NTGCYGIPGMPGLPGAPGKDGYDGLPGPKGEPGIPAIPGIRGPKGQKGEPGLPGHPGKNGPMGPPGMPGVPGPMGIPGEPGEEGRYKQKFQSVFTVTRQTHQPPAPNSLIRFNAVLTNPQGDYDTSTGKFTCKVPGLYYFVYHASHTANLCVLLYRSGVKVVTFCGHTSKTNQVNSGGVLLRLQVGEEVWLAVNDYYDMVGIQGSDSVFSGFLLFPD

Substance: RAGE (from UniProt Q15109)
- Kd: 5.6 µM
